What follows are binders tested against T1, SARS-CoV-2 nucleocapsid protein (SARS-CoV-2, UniProt P0DTC9 1-419) (assay: ELISA on recombinant protein).
T1 construct: also called N protein

Binder | binding result
EW 5A (antibody, V domains shown) VH: EVQLVESGGGLVQPGGSLRLSCSVSGFPFGTYAMHWVRQAPGKGLDYVSAINNDGSITYYADSVRGRFTVSRDNSENTLYLRLSGLRPDDTAIYYCVKDRGSVIRDFDVWGRGTLVTVSS VL: QTVVTQEPSLTVSPGGTVTLTCASSTGTVTSDYYPNWFQQKPGQAPRPLIFGTAYRHSWTPARFSGSLLGGKAALTVSDVQPEDEADYYCLLYCGGGQLFGGGTKLTVL | binds
EZ 9C (antibody, V domains shown) VH: EVQLVESGGGLVQPGGSLRLSCSASGFTLNGYAMHWVRQAPGKGLEYVSSLSNRGDNTRYAESVKGRFLISRDIAKDTLYLQMSSLRPEDTAVYYCGKGLLSASGGLPIDDWGQGTLVTVSS VL: QSVLTQPPSVSAAPGQKVTISCSGSSSNIGNNYVSWYQQFPGTAPKLLIYDNNKRPSGIPDRFSGSKSGTSATLGITGLQTGDEAAYYCATWDSSLSAGVFGGGAKLTVL | binds
EZ 9A (antibody, V domains shown) VH: EVQLVESGGGLVQPGESLRVSCAASGFTFSNYWMHWVRQVPGKGPVWVSIINTDGSITRYVDSVRGRFTISRDNAKNTVHLQMNSLTAEDTAIYYCARDVNRYPDYWGQGTLVTVSS VL: QSALTQPASVSGSPGQSITISCTGTYSDVGYYNYVSWYQQQPGKAPKVIIHGDINRPFGVSNRFSGSKSGNTASLTISGLQAEDEADYFCCSYVNNGAWVFGGGTKLTVL | binds
EY 12A (antibody, V domains shown) VH: EVQLVESGPGLVKPSQTLSLTCAVSGGSISSGGYYWSWIRQPPGKGLELIGYTDYTGKTLYNPSLKSRLTISVDTSKNQFSLKLRSVTAADTAVYYCARGMTQDDILTGFNRPHWYFDLWGRGSLVTVSS VL: QSVLTQPPSVSGAPGQRVTISCTGSSSNIGAGYDVHWYQQLPGTAPKVVIYRNMNRPSGVPDRFSGSKSGTSASLAITGLQAEDEADYYCQSFDSSLSDFVVFGGGTKLTVL | binds
FD 4C (antibody, V domains shown) VH: EVQLVESGPGLVKPSQTLSLTCTVSGGSISSGGYYWSWIRQHPGKGLEWIGYIYYSGSTYYNPSLKSRVTISVDTSKNQFSLKLSSVTAADTAVYYCARVRSSSSWYFDYWGQGTLVTVSS VL: QSVLTQPASVSGSPGQSITISCTGTSSDVGGYNYVSWYQQHPGKAPKLMIYDVSKRPSGVSNRFSGSKSGNTASLTISGLQAEDEADYYCSSYTSKWVFGGGTKLTVL | binds
EY 5A (antibody, V domains shown) VH: EVQLVESGPGLVKPSGTLFLTCTVSGGSISNYYWSWIRQPPGKALEWIGFIYSNGNTDYNPSLQSRVTISGDTSKNQFSLNLRSVTAADTAVYYCARGPGPATGGSLDYWGQGTMVTVSS VL: not shown | binds
EZ 7B (antibody, V domains shown) VH: EVQLVESSPGLVKPSETLSLTCTVSGGSISSYYWSWIRQPPGKGLEWIGYIYYSGSTNYNPSLKSRVTISVDTSKNQFSLKLSSVTAADTAVYYCARRVFGPVLPSKLGGSYWGGGAFDIWGQGTMVTVSS VL: not shown | binds
EZ 4C kappa (antibody, V domains shown, also called EZ 4C-1) VH: EVQLVESGPGLVKPSETLSLTCTVSGGSVSSGNNYWSWIRQPPGKALEWIGYIYYSGSTKYNPSLKSRVTMSVGTSKNQFSLKVNSVTAADTAMYYCARAPSAPFGGLFDWILPKGINNWGQGTLVTVSS VL: EIVLTQSPSTLSASVGDRVTITCRTSQSIRSWLAWYQQKPGKAPKLLIFEASTLESGVPERFSGSGSGAEFTLTISSLQPDDFATYYCQQYNGYSYSFGQGTKVEIR | binds
EY 8A (antibody, V domains shown) VH: EVQLVESGPGLVKPSQTLSLTCTVSGGSISSGSYYWSWIRQPAGKGLEWIGRIYTSGSTNYNPSLKSRVTISVDTSKNQFSLKLSSVTAADTAVYYCAKGHVISGYDDYYYYYGMDVWGQGTTVTVSS VL: not shown | binds
EZ 4A (antibody, V domains shown) VH: EVQLVQSGAEVKKPGESLKISCKGSGYSFTSYWIGWVRQMPGKGLEWMGIIYPGDSDTRYSPSFQGQVTISADKSISTAYLQWSSLKASDTAMYYCARSPIAADLFDYWGQGTLVTVSS VL: not shown | binds

— patent US20230279079A1 (CHANG GUNG MEMORIAL HOSPITAL LINKOU, published 2023)
